According to CN113150137A:

These binders were tested against 重组NDM-1蛋白 (新德里金属β-内酰胺酶, 肺炎克雷伯菌) (肺炎克雷伯菌 (Klebsiella pneumoniae)) (UniProt C7C422) (assay: indirect ELISA, NDM-1 coated at 100 ng/well, purified antibody diluted 1:10000 to 1:2560000, positive if the ratio to the negative control is >2.1).
Sequence of UniProt C7C422 (C7C422 29-270 limits assumed): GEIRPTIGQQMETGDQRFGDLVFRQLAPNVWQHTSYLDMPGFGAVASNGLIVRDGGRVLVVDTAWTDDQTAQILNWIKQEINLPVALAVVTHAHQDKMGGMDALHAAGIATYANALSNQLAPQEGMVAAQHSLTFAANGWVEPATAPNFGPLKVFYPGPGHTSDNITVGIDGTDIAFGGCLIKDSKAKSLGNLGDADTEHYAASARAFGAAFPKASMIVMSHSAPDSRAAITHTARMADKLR

| Binder | 效价 (ELISA titer, highest positive dilution) (fold dilution) |
| --- | --- |
| 单克隆抗体5B9 (antibody, V domains shown) VH: EVQLVESGGGLVKPGGSLKLSCAASGFTFSSYAMSWVRQSPEKRLEWVADISSGGSYTYYPDTVTGRFTISRDNAKNTLYLEMSSLGSEDTAMYYCAREYGGGFDYWGQGTTLTVSS VL: DIQMTQSPASLSASVGETVTITCRASGNIHNYLAWYQQKQGKSPQLLVYNAKTLADGVPSRFSGSGSGTQYSLKINSLQPEDFGSYYCQHFWSIPRTFGGGTKLEIK | 1e+06 |
| 单克隆抗体5G6 (antibody, V domains shown) VH: EVQLVESGGGLVKPGGSLKLSCAASGFTFSNYAMSWVRQSPEKRLEWVADISSGGSYTYYPDTVTGRFTISRDNAKNTLYLEMTSLRSEDTAMYYCAREYGGGFDYWGQGTTLTVSS VL: DIQMTQSPASLSASVGETVTITCRASGNIHNYLAWYQQKQGKSPQLLVYNAKTLADGVPSRFSGSGSGTQYSLKINSLQPEDFGNYYCQHFWSIPRTFGGGTKLEIK | 1e+06 |
| 单克隆抗体7C10 (antibody, V domains shown) VH: QVQLQQPGAELVRPGASVRLSCKASGYTFTNYWMNWVKQRPGQGLEWIGSINPSDGYTKYNQKFKDKATLTVDKSSSTAYLQLSSPTSEDSAVYYCTRKKVNYDYAMDYWGQGTSVTVSS VL: DIVMSQSPSSLAVSVGEKVTMSCKSSQSLLYSSNQKNYLAWYQQKPGQSPKLLIYWASTRESGVPDRFTGSGSGTDFTLTISSVKAEDLAFYYCHQYYSYPYTFGGGTKLERK | 600000 |
